Assay results published in a protein production outcome set (Wang et al. 2014).

assay: label from the status in PepcDB records

| Sequence | protein production |
| --- | --- |
| SKQDASRNAAYTVDCEDYVHVVEFNPFENGDSGNLIAYGGNNYVVIGTCTFQEEEADVEGIQYKTLRTFHHGVRVDGIAWSPETRLDSLPPVIKFCTSAADMKIRLFTSDLQDKNEYKVLEGHTDFINGLVFDPKEGQEIASVSDDHTCRIWNLEGVQTAHFVLHSPGMSVCWHPEETFKLMVAEKNGTIRFYDLLAQQAILSLESEQVPLMSAHWCLKNTFKVGAVAGNDWLIWDITRSSYPQNKRPVHMDRACLFRWSTISENLFATTGYPGKMASQFQIHHLGHPQPILMGSVAVGSGLSWHRTLPLCVIGGDHKLLFWVTEV | not failed |
| SKSSEKRQAVDTAVDGVFIRSLKVNCKVTSRFAHYVVTSQVVNTANEAREVAFDLEIPKTAFISDFAVTADGNAFIGDIKDKVTA | failed |
| SKYKILVSFSNPESGKTLLKLANGLTKKLNSNASLTALHLSPTNELHHYNIEEYEKEIFDPIIEESQQLNQKVTTIFKASNDINYEVADTANKGDYDLLLVG | failed |
| SLAGETINFCKGWKFHLGDAGKGASSSSYNDSQWRILNIPHDWSIEGTYKQFENGTDWQSGFLPAGISWYRKTFTIPSKWKNKKVQILFEGVYLNSEVWINGHWLGKRPNGYISFVYDLTPYLQEGKNQIAVKVDHSKALTGRWYTGSGIYRPVYLLVSNPTHIPYSGIHFRSKLQNKQSATYTLSIEIETQEKKPIKVKTYLQAPNGSIADTSEKIFVSSADSLCFLSGSIRKPLLWSPDSPNVYTLICQLTRDNKILDECRLPVGFRQLEFNPVSGFLLNGKSLKIKGVCDHHTVGAVGAAVPDDLLHYRLKLLKDMGCNAIRTSHNPFSPAFYNLCDTMGIMVLNEGLDGWNQPKAADDYGNYFDEWWQKDMTDFIKRDRNHPSIIMWSIGNEVTGATPEIQHNLVSLFHQLDPDRPVTQGGTDPTRGMKTDYQKKFNYLDIIGFNGNGEEIGELEHFHKNYPTLCAIATEVPHTYQTRGVYRSQTQWRRRDFPAPWEKGNINWEQFKHRVFPIPDLTEKECFPEESDYPYYQSSYDNASVRISARKSWQRTCSFPWLMGEFRWGSFDYLGEAEWPQRCGNFGIIDIAAIPKDAYFLYQSLWTDKPMVHLLPHWTHPGKEGKTIPVVIYTNCDAVELFINNVSLGSKPYTGEQLIWLVPYSPGKIEARGIKKGKIVATDCYQSAEAPHSVALASNKYSVKAGSDEVIRIEIDITDKNGIPCPYASNELSFHVSGPLRLLGVDNGNPTDMFPYQQPHCRCFRGKCVVLLQSDEEKGKGTLTVQGTKLVEKKLIIEVIEG | not failed |
| SLDSINTRIAEELSALPSGRVQPQQVAAAVALLDEGSTVPFIARYRKEVTGSLDDTQLRMLEERLRYLRELEERRGAILASIEEQGKLTPELARDIKLADTKTRLEDLYLPYKQKRRTKGQIALEAGLGALADALFDDPTLVPESEAARFVDAEKGFADVKAVLEGAKYILMERFAEDATLLDKLRVFMKNEATLTARVVPGKEQEGAKFSDYFEHDEPLKSAPSHRALAIFRGRNEGVLSASLKVGEEAPGTLHPCEVMIAQRFGLSNQGRAADKWLAEVVRWTWKVKLYTHLETDLFGELRDGAEDEAISVFARNLHDLLLAAPAGPRATLGLDPGLRTGVKVAVVDATGKLLDTATVYPHAPKNQWDQTLAVLAALCAKHQVELIAIGNGTASRETDKLAGELIKKYPGMKLTKIMVSEAGASVYSASELAAKEFPELDVSLRGAVSIARRLQDPLAELVKIEPKSIGVGQYQHDVSQLKLARSLDAVVEDCVNAVGVDVNTASAALLARISGLNSTLAQNIVAHRDANGAFRTRDELKKVSRLGEKTFEQAAGFLRVMNGDNPLDASAVHPETYPLVQRIAADTERDIRSLIGDSAFLKRLDPKKFTDETFGLPTVTDILKELDKPGRDPRPEFKTAEFQEGVESLKDLKPGMVLEGVVTNVTNFGAFVDIGVHQDGLVHISALSEKFVKDPYEVVKAGDIVKVKVMEVDIPRNRVGLSMRMSDTPGEKVEGQRGGRPTGSGQPRQERGAPRGQSAPPANNAMAALFANAKQLKKK | not failed |
| SLFVKESHNTSKGPEATWNLNKVHFVYDSSEKTHFKAPVKVNKYIASSHHLSALVTPAGMSYECQAQQTISLASSDPQKTVTMILSAVHIQPFDIISDFVFSEEHKCPVDEQEQLEETLPLILGLILGLVIVITLVIYHIHHKMTANQVQIPRDRSQYKHMG | failed |
| SLLRFSAVSRHHRGASIDPMTFSEATTPDALTPDAHTPRLLTCDVLYTGMGGAQSPGGVVVVGETVAAAGHPDELRRQYPHAAEERAGAVIAPPPVNAHTHLDMSAYEFQALPYFQWIPEVVIRGRHLRGVAAAQAGADTLTRLGAGGVGDIVWAPEVMDALLAREDLSGTLYFEVLNPFPDKADEVFAAARTHLERWRRLERPGLRLGLSPHTPFTVSHRLMRLLSDYAAGEGLPLQIHVAEHPTELEMFRTGGGPLWDNRMPALYPHTLAEVIGREPGPDLTPVRYLDELGVLAARPTLVHMVNVTPDDIARVARAGCAVVTCPRSNHHLECGTFDWPAFAAAGVEVALGTDSVASGETLNVREEVTFARQLYPGLDPRVLVRAAVKGGQRVVGGRTPFLRRGETWQEGFRWELSRDL | not failed |
| SLRHSPSLWELVEEHVPLRERREVKRILGEAAVDLSLELRAEVAMLRALLQEARSSQAPSSRPISDPSSLLAPPPLLKDLLRQELRQLLQGLRHKAICEGRDQAQAWVQYSPRVLHFALEEPRCDLPEQEIFQMRGGGPSSGHRDLSIIKDQLNVSNIDQVARHLRGLLEEECHTLEREILILQRCLEEEYLRPCHPSEAALEPTLAELKEQKKAMEQELQASVGPSCVSPNHRQRPLGSSTQGLRPPLPLCGVAPLQCCLPAPPLEPYLRPRGQSATHRWGRQLQCSPREGPASTPMSSAAPQAPA | not failed |
| SLSEDKMDLYLQQGMYGPLETKPDERHLFLGSLRERVVLALTKGQVLRSKPYKEAEHELKNSHNVTLLINGELQYQSYSSYIQMASRYGVPFKIVSDLQFHTPLGIVIAADIAVNRELIYIQDDIYNRSVLKS | not failed |
| SLSQTTNIKEQTDTGLAPPAPAITTNSAAIEEQANSSIRKLYHTLNTMPNTSMADRISQISAYFKGTKYILGSLGEGPNARYDQFPRYRVDGFDCDTYVNTVLSLALANSLESFQECLKHTRYKNGKRSYINRNHFTSIDWNNYNQKRGLLKDITFSIRNEKKQPVALYANALINKPQWYNHKTIDTIRLQKQDKNEQEKRLVELKAKGKTLETSLSNVPYIPFTALFSENKPNLHLFSQIPNGAVIEIIRPNWDLRQQIGTELDISHLGFAIWINNELFFRQASSQYGKVVDVSLIDYLDKARSSPTIKGINIQVVLPEKPVSNGCQLFDIR | not failed |
| SLSSKDKDTVKALWGKIADKAEEIGSDALSRMLAVYPQTKTYFSHWKDLSPGSAPVNKHGKTIMGGIVDAVASIDDLNAGLLALSELHAFTLRVDPANFKILSHCILVLLAVKFPKDFTPEVHISYDKFFSALARALAEKYR | not failed |
| SNQLQQLQNPGESPPVHPFVAPLSYLLGTWRGQGEGEYPTIPSFRYGEEIRFSHSGKPVIAYTQKTWKLESGAPMHAESGYFRPRPDGSIEVVIAQSTGLVEVQKGTYNVDEQSIKLKSDLVGNASKVKEISREFELVDGKLSYVVRMSTTTNPLQPHLKAILDKL | not failed |
| SNSHDGSNFSNKFSAHKDVVEDLLRKDTVGLVTFQDFRARREYLERCAVAEAACQNASRRAEELETKKKRVKRANLSRLSFGDSLEDQEENSVEFAKITRFASSKKANGVGFNTSGQDIVKEPDVFSPKEEGFFGKQNRKIGMDPGVDTSFLPDRDREQEERLERERLKQQWLSEQERVKNEEIDIIYSIWDGRGQRKLLSCKKGTTIAKFLSIVQQKVSTLKHCKVEDLMFIKEDMIIPHHLSFYDLISMKARGKNGSLFCFDVHEDIRIRNDASVEKDDSHAAKVVERRWYERNKHIYPASMWEVFDVSKNYGRVQKDFFGN | failed |
| SPLPVALQTRLAKRGILKHLEPEPEEEIIAEDYDDDPVDYEATRLEGLPPSWYKVFDPSCGLPYYWNADTDLVSWLSPHDPNSVVTKSAKKLRSSNADAEEKLDRSHDKSDRGHDKSDRSHEKLDRGHDKSDRGHDKSDRDRERGYDKVDRERERDRERDRDRGYDKADREEGKERRHHRREELAPYPKSKKAVSRKDEELDPMDPSSYSDAPRGTWSTGLPKRNEAKTGADTTAAGPLFQQRPYPSPGAVLRANAEASRTKQQD | not failed |
| SPMPAGRPRFLRSMALSSQTREWLEKGMPTEAEAGVPIRLQERAANTAPQARAEERHTQPADAAAPHARAERGRTLQAPASTSPLYTGAVPRANRIVQQLVEAGADLANIRTMFRNMLRGEEMILSRAEQNVFLQHFPDMLPCGIDRNSELAIALREALRRADSQQAARAPARTPPRSS | not failed |
| SQSLYQALWNSADVLRSKMDANDYKSYLLGMVFYKYLSDKMLFFVAETMEEETESLDEALAVYRKYYEDEETHEDLLAVITDEMSYAIHPDLTFTALVERVNDGSFQLEDLAQGFRDIEQSDELYENLFEDIDLYSKKLGATPQKQNQTVAAVMKELAVLDVAGHAGDMLGDAYEYLIGQFATDSGKKAGEFYTPQPVAKLMTQIAFLGREDKQGFTLYDATMGSGSLLLNAKRYSRQPQTVVYFGQELNTSTYNLARMNMILHGVPIENQFLHNADTLDEDWPTQEPTNFDGVLMNPPYSAKWSASSGFMDDPRFSPFGKLAPKSKADFAFLLHGYYHLKQDNGVMAIVLPHGVLFRGNAEGTIRKALLEEGAIDTVIGLPANIFFNTSIPTTVIILKKNRTNRDVYFIDASKEFDKGKNQNIMTDAHIEKILNAYKSREDIDKFAHLASFEEIVENDYNLNIPRYVDTFEEEEVEPLTEIVAKINQTNATIESQTASLLDMLGQLHGTTPEADEELKAFVKAFKG | failed |
| SRKVFVGGLPPDIDEDEITASFRRFGPLVVDWPHKAESKSYFPPKGYAFLLFQEESSVQALIDACLEEDGKLYLCVSSPTIKDKPVQIRPWNLSDSDFVMD | not failed |
| SRSRPAGPALLLLLLFLGAAESVRRAQPPRRYTPDWPSLDSRPLPAWFDEAKFGVFIHWGVFSVPAWGSEWFWWHWQGEGRPQYQRFMRDNYPPGFSYADFGPQFTARFFHPEEWADLFQAAGAKYVVLTTKHHEGFTNWPSPVSWNWNSKDVGPHRDLVGELGTALRKRNIRYGLYHSLLEWFHPLYLLDKKNGFKTQHFVSAKTMPELYDLVNSYKPDLIWSDGEWECPDTYWNSTNFLSWLYNDSPVKDEVVVNDRWGQNCSCHHGGYYNCEDKFKPQSLPDHKWEMCTSIDKFSWGYRRDMALSDVTEESEIISELVQTVSLGGNYLLNIGPTKDGLIVPIFQERLLAVGKWLSINGEAIYASKPWRVQWEKNTTSVWYTSKGSAVYAIFLHWPENGVLNLESPITTSTTKITMLGIQGDLKWSTDPDKGLFISLPQLPPSAVPAEFAWTIKLTGVK | failed |
| SSGGKSAQGPEEGGVCITEALITKRNLTFPEDGELSEKMFHTLDELQTVRLDREGITTIRNLEGLQNLHSLYLQGNKIQQIENLACIPSLRFLSLAGNQIRQVENLLDLPCLQFLDLSENLIETLKLDEFPQSLLILNLSGNSCTNQDGYRELVTEALPLLLDLDGQPVVERWISDEEDEASSDEEFPELSGPFCSERGFLKELEQELSRHREHRQQTALTEHLLRMEMQPTLTDLPLLPGVPMAGDSSPSATPAQGEETVPEAVSSPQASSPTKKPCSLIPRGHQSSFWGRKGARAATAPKASVAEAPSTTKTTAKRSKK | not failed |
| SSNQTPYIGSKISLISKLDIRYEGILYTVDTNDSTIALAKVRSFGTEKRPTANPVAARDDVYEYIIFKASDIKDLIVCDTPKMANIGGGLPYDPAIISVSSRSAPASDGAPAASAGSSRAGTPSRNSPLGQIIQNQRPGRGGYQQNFQANRGYNNYRGGFAGGYNNQRGHNNYGVPRVNHREKLKFESDFDFEKANEKFQEVLVDNLEKLNIEDKAEPEVEEKKDAAFYDKKTSFFDNISCESLEKAEGKTGRPDWKKERETNQETFGHNAVRSLNYRRGFGGRGRGGNRGYGGYNNGYQHQHQHRGGYNGGYRQNNGGYRRGGYAPRDNQGNTAAAAEQ | failed |
